Assay results taken from the Human Domainome abundance scans (Beltran et al. 2025).
± gives the uncertainty stated by the source.

B1: Dynamin-binding protein, residues 242 to 304; numbered along this chain, Q6XZF7 (parent)
chain: EEPGTYGVALYRFQALEPNELDFEVGDKIRILATLEDGWLEGSLKGRTGIFPYRFVKLCPDTR

Variants of: B1
Experiment: abundance fitness (aPCA) (normalised: wild type 0, dead -1); higher = more abundant; growth selection in yeast, the domain comes from the species named
Details: Homo sapiens

Row | Variant | abundance fitness
1 | EEPGTYGVALYRFQAVEPNELDFEVGDKIRILATLEDGWLEGSLKGRTGIFPYRFVKLCPDTR [L16V] | 0.117 ± 0.05
2 | EEPGTYGVALYRFQAYEPNELDFEVGDKIRILATLEDGWLEGSLKGRTGIFPYRFVKLCPDTR [L16Y] | -0.137 ± 0.06
3 | EEPGTYGVALYRFQAPEPNELDFEVGDKIRILATLEDGWLEGSLKGRTGIFPYRFVKLCPDTR [L16P] | -0.697 ± 0.22
4 | EEPGTYGVALYRFQASEPNELDFEVGDKIRILATLEDGWLEGSLKGRTGIFPYRFVKLCPDTR [L16S] | 0.29 ± 0.048
5 | EEPGTYGVALYRFQAREPNELDFEVGDKIRILATLEDGWLEGSLKGRTGIFPYRFVKLCPDTR [L16R] | 0.316 ± 0.058
6 | EEPGTYGVALYRFQAWEPNELDFEVGDKIRILATLEDGWLEGSLKGRTGIFPYRFVKLCPDTR [L16W] | -0.501 ± 0.16
7 | EEPGTYGVALYRFQAKEPNELDFEVGDKIRILATLEDGWLEGSLKGRTGIFPYRFVKLCPDTR [L16K] | -0.077 ± 0.25
8 | EEPGTYGVALYRFQAIEPNELDFEVGDKIRILATLEDGWLEGSLKGRTGIFPYRFVKLCPDTR [L16I] | 0.03 ± 0.06
9 | EEPGTYGVALYRFQAHEPNELDFEVGDKIRILATLEDGWLEGSLKGRTGIFPYRFVKLCPDTR [L16H] | 0.141 ± 0.074
10 | EEPGTYGVALYRFQAEEPNELDFEVGDKIRILATLEDGWLEGSLKGRTGIFPYRFVKLCPDTR [L16E] | -0.027 ± 0.22
11 | EEPGTYGVALYRFQADEPNELDFEVGDKIRILATLEDGWLEGSLKGRTGIFPYRFVKLCPDTR [L16D] | 0.047 ± 0.063
12 | EEPGTYGVALYRFQANEPNELDFEVGDKIRILATLEDGWLEGSLKGRTGIFPYRFVKLCPDTR [L16N] | 0.35 ± 0.054
13 | EEPGTYGVALYRFQAFEPNELDFEVGDKIRILATLEDGWLEGSLKGRTGIFPYRFVKLCPDTR [L16F] | -0.067 ± 0.068
14 | EEPGTYGVALYRFQAMEPNELDFEVGDKIRILATLEDGWLEGSLKGRTGIFPYRFVKLCPDTR [L16M] | 0.242 ± 0.12
15 | EEPGTYGVALYRFQAAEPNELDFEVGDKIRILATLEDGWLEGSLKGRTGIFPYRFVKLCPDTR [L16A] | 0.187 ± 0.064
16 | EEPGTYGVALYRFQAQEPNELDFEVGDKIRILATLEDGWLEGSLKGRTGIFPYRFVKLCPDTR [L16Q] | 0.284 ± 0.12
17 | EEPGTYGVALYRFQAGEPNELDFEVGDKIRILATLEDGWLEGSLKGRTGIFPYRFVKLCPDTR [L16G] | 0.073 ± 0.067
18 | EEPGTYGVALYRFQACEPNELDFEVGDKIRILATLEDGWLEGSLKGRTGIFPYRFVKLCPDTR [L16C] | 0.09 ± 0.054
19 | EEPGTYGVALYRFQATEPNELDFEVGDKIRILATLEDGWLEGSLKGRTGIFPYRFVKLCPDTR [L16T] | 0.344 ± 0.062
20 | EEPGTYGVALYRFQALCPNELDFEVGDKIRILATLEDGWLEGSLKGRTGIFPYRFVKLCPDTR [E17C] | -0.259 ± 0.057
21 | EEPGTYGVALYRFQALLPNELDFEVGDKIRILATLEDGWLEGSLKGRTGIFPYRFVKLCPDTR [E17L] | -0.011 ± 0.05

Row | Variant | abundance fitness
22 | EEPGTYGVALYRFQALKPNELDFEVGDKIRILATLEDGWLEGSLKGRTGIFPYRFVKLCPDTR [E17K] | 0.391 ± 0.091
23 | EEPGTYGVALYRFQALTPNELDFEVGDKIRILATLEDGWLEGSLKGRTGIFPYRFVKLCPDTR [E17T] | -0.157 ± 0.074
24 | EEPGTYGVALYRFQALRPNELDFEVGDKIRILATLEDGWLEGSLKGRTGIFPYRFVKLCPDTR [E17R] | 0.151 ± 0.053
25 | EEPGTYGVALYRFQALSPNELDFEVGDKIRILATLEDGWLEGSLKGRTGIFPYRFVKLCPDTR [E17S] | -0.062 ± 0.047
26 | EEPGTYGVALYRFQALWPNELDFEVGDKIRILATLEDGWLEGSLKGRTGIFPYRFVKLCPDTR [E17W] | -0.488 ± 0.14
27 | EEPGTYGVALYRFQALIPNELDFEVGDKIRILATLEDGWLEGSLKGRTGIFPYRFVKLCPDTR [E17I] | -0.783 ± 0.12
28 | EEPGTYGVALYRFQALHPNELDFEVGDKIRILATLEDGWLEGSLKGRTGIFPYRFVKLCPDTR [E17H] | 0.229 ± 0.056
29 | EEPGTYGVALYRFQALNPNELDFEVGDKIRILATLEDGWLEGSLKGRTGIFPYRFVKLCPDTR [E17N] | 0.158 ± 0.054
30 | EEPGTYGVALYRFQALFPNELDFEVGDKIRILATLEDGWLEGSLKGRTGIFPYRFVKLCPDTR [E17F] | -0.513 ± 0.067
31 | EEPGTYGVALYRFQALYPNELDFEVGDKIRILATLEDGWLEGSLKGRTGIFPYRFVKLCPDTR [E17Y] | -0.234 ± 0.066
32 | EEPGTYGVALYRFQALQPNELDFEVGDKIRILATLEDGWLEGSLKGRTGIFPYRFVKLCPDTR [E17Q] | 0.189 ± 0.14
33 | EEPGTYGVALYRFQALGPNELDFEVGDKIRILATLEDGWLEGSLKGRTGIFPYRFVKLCPDTR [E17G] | 0.072 ± 0.048
34 | EEPGTYGVALYRFQALAPNELDFEVGDKIRILATLEDGWLEGSLKGRTGIFPYRFVKLCPDTR [E17A] | 0.029 ± 0.059
35 | EEPGTYGVALYRFQALPPNELDFEVGDKIRILATLEDGWLEGSLKGRTGIFPYRFVKLCPDTR [E17P] | -1.01 ± 0.32
36 | EEPGTYGVALYRFQALVPNELDFEVGDKIRILATLEDGWLEGSLKGRTGIFPYRFVKLCPDTR [E17V] | -0.4 ± 0.063
37 | EEPGTYGVALYRFKALEPNELDFEVGDKIRILATLEDGWLEGSLKGRTGIFPYRFVKLCPDTR [Q14K] | -0.205 ± 0.13
38 | EEPGTYGVALYRFNALEPNELDFEVGDKIRILATLEDGWLEGSLKGRTGIFPYRFVKLCPDTR [Q14N] | -0.198 ± 0.065
39 | EEPGTYGVALYRFSALEPNELDFEVGDKIRILATLEDGWLEGSLKGRTGIFPYRFVKLCPDTR [Q14S] | -0.321 ± 0.056
40 | EEPGTYGVALYRFGALEPNELDFEVGDKIRILATLEDGWLEGSLKGRTGIFPYRFVKLCPDTR [Q14G] | -0.696 ± 0.077
41 | EEPGTYGVALYRFEALEPNELDFEVGDKIRILATLEDGWLEGSLKGRTGIFPYRFVKLCPDTR [Q14E] | -0.131 ± 0.13
42 | EEPGTYGVALYRFDALEPNELDFEVGDKIRILATLEDGWLEGSLKGRTGIFPYRFVKLCPDTR [Q14D] | -0.264 ± 0.064
